# Laboratory results reported in US7888089B2, “eNOS mutations useful for gene therapy and therapeutic screening” (Yale University, priority 1999, dated 2011).
# B1: Wild type: Wild type bovine endothelial nitric oxide synthase (eNOS) (protein, UniProt P29473 2-1205, looked up)
# Nitric oxide synthase 3: GNLKSVGQEPGPPCGLGLGLGLGLCGKQGPASPAPEPSRAPAPATPHAPDHSPAPNSPTLTRPPEGPKFPRVKNWELGSITYDTLCAQSQQDGPCTPRCCLGSLVLPRKLQTRPSPGPPPAEQLLSQARDFINQYYSSIKRSGSQAHEERLQEVEAEVASTGTYHLRESELVFGAKQAWRNAPRCVGRIQWGKLQVFDARDCSSAQEMFTYICNHIKYATNRGNLRSAITVFPQRAPGRGDFRIWNSQLVRYAGYRQQDGSVRGDPANVEITELCIQHGWTPGNGRFDVLPLLLQAPDEAPELFVLPPELVLEVPLEHPTLEWFAALGLRWYALPAVSNMLLEIGGLEFSAAPFSGWYMSTEIGTRNLCDPHRYNILEDVAVCMDLDTRTTSSLWKDKAAVEINLAVLHSFQLAKVTIVDHHAATVSFMKHLDNEQKARGGCPADWAWIVPPISGSLTPVFHQEMVNYILSPAFRYQPDPWKGSATKGAGITRKKTFKEVANAVKISASLMGTLMAKRVKATILYASETGRAQSYAQQLGRLFRKAFDPRVLCMDEYDVVSLEHEALVLVVTSTFGNGDPPENGESFAAALMEMSGPYNSSPRPEQHKSYKIRFNSVSCSDPLVSSWRRKRKESSNTDSAGALGTLRFCVFGLGSRAYPHFCAFARAVDTRLEELGGERLLQLGQGDELCGQEEAFRGWAKAAFQASCETFCVGEEAKAAAQDIFSPKRSWKRQRYRLSTQAEGLQLLPGLIHVHRRKMFQATVLSVENLQSSKSTRATILVRLDTAGQEGLQYQPGDHIGICPPNRPGLVEALLSRVEDPPPPTESVAVEQLEKGSPGGPPPSWVRDPRLPPCTLRQALTFFLDITSPPSPRLLRLLSTLAEEPSEQQELETLSQDPRRYEEWKWFRCPTLLEVLEQFPSVALPAPLLLTQLPLLQPRYYSVSSAPNAHPGEVHLTVAVLAYRTQDGLGPLHYGVCSTWLSQLKTGDPVPCFIRGAPSFRLPPDPYVPCILVGPGTGIAPFRGFWQERLHDIESKGLQPAPMTLVFGCRCSQLDHLYRDEVQDAQERGVFGRVLTAFSREPDSPKTYVQDILRTELAAEVHRVLCLERGHMFVCGDVTMATSVLQTVQRILATEGDMELDEAGDVIGVLRDQQRYHEDIFGLTLRTQEVTSRIRTQSFSLQERHLRGAVPWAFDPPGPDTPGP
# B2: S1179D: bovine eNOS with serine 1179 mutated to aspartic acid (protein)
# chain: GNLKSVGQEPGPPCGLGLGLGLGLCGKQGPASPAPEPSRAPAPATPHAPDHSPAPNSPTLTRPPEGPKFPRVKNWELGSITYDTLCAQSQQDGPCTPRCCLGSLVLPRKLQTRPSPGPPPAEQLLSQARDFINQYYSSIKRSGSQAHEERLQEVEAEVASTGTYHLRESELVFGAKQAWRNAPRCVGRIQWGKLQVFDARDCSSAQEMFTYICNHIKYATNRGNLRSAITVFPQRAPGRGDFRIWNSQLVRYAGYRQQDGSVRGDPANVEITELCIQHGWTPGNGRFDVLPLLLQAPDEAPELFVLPPELVLEVPLEHPTLEWFAALGLRWYALPAVSNMLLEIGGLEFSAAPFSGWYMSTEIGTRNLCDPHRYNILEDVAVCMDLDTRTTSSLWKDKAAVEINLAVLHSFQLAKVTIVDHHAATVSFMKHLDNEQKARGGCPADWAWIVPPISGSLTPVFHQEMVNYILSPAFRYQPDPWKGSATKGAGITRKKTFKEVANAVKISASLMGTLMAKRVKATILYASETGRAQSYAQQLGRLFRKAFDPRVLCMDEYDVVSLEHEALVLVVTSTFGNGDPPENGESFAAALMEMSGPYNSSPRPEQHKSYKIRFNSVSCSDPLVSSWRRKRKESSNTDSAGALGTLRFCVFGLGSRAYPHFCAFARAVDTRLEELGGERLLQLGQGDELCGQEEAFRGWAKAAFQASCETFCVGEEAKAAAQDIFSPKRSWKRQRYRLSTQAEGLQLLPGLIHVHRRKMFQATVLSVENLQSSKSTRATILVRLDTAGQEGLQYQPGDHIGICPPNRPGLVEALLSRVEDPPPPTESVAVEQLEKGSPGGPPPSWVRDPRLPPCTLRQALTFFLDITSPPSPRLLRLLSTLAEEPSEQQELETLSQDPRRYEEWKWFRCPTLLEVLEQFPSVALPAPLLLTQLPLLQPRYYSVSSAPNAHPGEVHLTVAVLAYRTQDGLGPLHYGVCSTWLSQLKTGDPVPCFIRGAPSFRLPPDPYVPCILVGPGTGIAPFRGFWQERLHDIESKGLQPAPMTLVFGCRCSQLDHLYRDEVQDAQERGVFGRVLTAFSREPDSPKTYVQDILRTELAAEVHRVLCLERGHMFVCGDVTMATSVLQTVQRILATEGDMELDEAGDVIGVLRDQQRYHEDIFGLTLRTQEVTSRIRTQDFSLQERHLRGAVPWAFDPPGPDTPGP
# Legend:
# Akt = experiment: 32P phosphorylation of eNOS in intact transfected COS cells; type: cell-based; settings: intact COS cells, 32P-orthophosphate
# Procedure: Phosphorylation studies in vivo and in vitro: For in vivo phosphorylation studies, COS cells were transfected with the cDNAs for wild-type or S635, 1179A eNOS and HA-Akt overnight. 36 hrs after transfection, cells were placed into dialyzed serum replete, phosphate-free Dulbecco's minimum essential medium supplemented with 80 μCi/ml of ^32P orthophosphoric acid for 3 hr. Some cells were pretreated with wortmannin (500 nM) in the phosphate-free media for 1 hr and during the labeling.
# COS cells = experiment: cGMP accumulation in transfected COS cells as bioassay for NO; type: cell-based; settings: eNOS alone or eNOS with Akt construct
# Description: (§1) Cell Transfections: The bovine eNOS, human iNOS, rat nNOS cDNAs in pcDNA3 and HA-tagged wild-type Akt, Akt (K179M) or myr-Akt in pCMV6 were generated by standard cloning methods. The myr-nNOS in pcDNA3 was generated by PCR, incorporating a new amino terminus containing the eNOS N-myristoylation consensus site (MGNLKSVG, SEQ ID NO:1) fused in frame to the second amino acid of the nNOS coding sequence. […] Mutation of the putative Akt phosphorylation sites in eNOS were generated using the Quick Change site-directed mutagenesis kit (Stratagene) according to the manufacturers instructions. All mutants were verified by DNA sequencing. COS-7 cells were plated (100 mm dish) and transfected with the NOS (7.5-30 mg) and Akt (1 mg) plasmids using calcium phosphate. To balance all transfections, the expression vector for β-galactosidase cDNA was used. Twenty-four to forty-eight hours after transfection, the expression of appropriate proteins (40-80 mg) were confirmed by Western blot analysis using eNOS mAb (9D10, Zymed), HA mAb (12CA5, Boehringer Mannheim), iNOS pAb (Zymed Laboratories) or nNOS mAb (Zymed Laboratories).
# NO release from transfected COS cells: 24-48 hrs after transfection, media was processed for the measurement of nitrite (NO2^−), the stable breakdown product of NO in aqueous solution, by NO specific chemiluminescence as described (Sessa et al., 1995). […]
# [1] = DCIP reduction by purified eNOS; type: biochemical; settings: FIG. 6B
# Procedure: Assays for Reductase Activity—NADPH-cytochrome c reductase activity and 2,6-dichlorophenolindophenol (DCIP) reduction were measured as a change in absorbance at 550 nm as described previously by Martasek et al. (1999) and Masters et al. (1967) using an extinction coefficient of 0.021 μM^−1 cm^−1 for both cytochrome c and DCIP. Briefly, a reaction mixture (1 ml) contained either cytochrome c (90 μM); DCIP (36 μM), HEPES buffer (50 mM) at pH 7.6, NaCl (250 mM), NADPH (100 μM), calmodulin (120 nM), and CaCl2 (200 μM); or other substances as indicated. The reaction was monitored for 60 s (at 23° C.) after the addition of eNOS. When inactivation of reductase activity was determined by the addition of EGTA (200-800 μM), chelator was added 1 min after initiation of the reaction and monitored for an additional 1 min. The reaction contained HEPES buffer (50 mM) at pH 7.6, CaM (120 nM), and CaCl2 (200 μM) and was initiated with NADPH (100 μM). No NaCl was added in experiments that examined EGTA inactivation of eNOS to mimic the conditions used in the hemoglobin capture experiments. […] Determination of the calcium EC50 for eNOS was performed as described above for the hemoglobin capture assay.
# COS-7 cells = experiment: NO release (NO2−, chemiluminescence) from transfected COS cells; type: cell-based; settings: NOS construct co-transfected with Akt
# Description: as §1
# NO release from transfected COS cells: 24-48 hrs after transfection, media was processed for the measurement of nitrite (NO2^−), the stable breakdown product of NO in aqueous solution, by NO specific chemiluminescence as described (Sessa et al., 1995). Media was deproteinized and samples containing NO2^− were refluxed in glacial acetic acid containing sodium iodide. […] In all experiments, NO2^− release was inhibitable by a NOS inhibitor. In addition, NO2^−-release from cells transfected with the β-galactosidase cDNA was subtracted to control for background levels of NO2^− found in serum or media. In some experiments, cGMP accumulation in COS was used as a bioassay for the production of NO as described.
Molecule,enhancement in phosphorylation on co-expression of Akt relative to non-stimulated cells (Akt),cGMP accumulation (COS cells),DCIP reduction activity compared with wild type eNOS [1],Akt dependent NO release / activation of NOS construct (COS-7 cells)
B1,2 fold,5.5±0.8 pmol cGMP/mg protein,–,–
B2,–,–,significant increase in activity,partially mimics the activation state induced by Akt
